Results taken from US20090233074A1 (ARTIFICIAL CELL TECHNOLOGIES, published 2009).
Blank lines part the entries; values can stand above or below the binder they belong to.

Legend:
[1] = target: T1, de novo-designed cysteine-containing negative polypeptide (SEQ ID NO: 6); assay: QCM, layer-by-layer assembly, 10 mM Tris-HCl, 10 mM DTT, pH 7.4, 2 mg/mL peptide
T1 peptide: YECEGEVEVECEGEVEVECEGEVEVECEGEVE
Method: All assembly experiments using QCM were conducted in the same conditions, except that the samples to undergo oxidation were dried using air instead of nitrogen gas. The assembly conditions were 10 mM Tris-HCl, 10 mM DTT, pH 7.4. The nominal peptide concentration was 2 mg/mL. The number of layers formed was 14.

[2] = target: T2, SN1 (short negative designed polypeptide); assay: QCM, electrostatic layer-by-layer adsorption of oppositely charged peptides, pH 7.4, 1 mM DTT (pairs named in paragraph 153)
T2 construct: Synthetic 32-residue polyanion built from a 7-residue motif of human complement C3, with Gly linkers and an N-terminal Tyr
T2 peptide: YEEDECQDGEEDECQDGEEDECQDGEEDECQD
Method: (§1) The polypeptide molecular weight was verified by electrospray mass spectrometry. Peptide purity was greater than 70%. The polypeptide buffer was 10 mM sodium phosphate or 10 mM Tris-HCl, 1 mM DTT, 0.1 mM sodium azide, pH 7.4. All chemicals other than polypeptides were purchased from Sigma-Aldrich (USA).
(§2) Resonators were rinsed for 1 min. in pure water between subsequent adsorption cycles (removing perhaps 10-15% of weakly adsorbed material) and dried in a stream of gaseous N₂. Then the mass of the deposited peptide was measured indirectly by QCM. The mass measurement includes some water, despite drying, and low mass ions like K⁺, Na⁺, and Cl⁻. Partial interpenetration of neighboring layers of peptide is probable (see Decher, G. (1997) Science 227:1232; Schmitt et al. (1993) Macromolecules 26:7058; and Korneev et al. (1995) Physica B 214:954); this could be important for the efficiency of disulfide “locking.”
(§3) After adsorption of the polypeptide and rinsing and drying the QCM resonator, the resonant frequency of the resonator was measured. This enabled calculation of the frequency shift on adsorption and change in adsorbed mass. A decrease in frequency indicates an increase in adsorbed mass. […] Each of these combinations involved one negative polypeptide and one positive polypeptide, as required by ELBL.

[3] = target: T3, LN3 (long negative designed polypeptide); assay: as above
T3 construct: Synthetic 48-residue polyanion; also called negative 48-residue peptide
T3 peptide: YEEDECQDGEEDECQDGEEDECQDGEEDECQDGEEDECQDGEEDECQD
Method: as §1, §2, §3

binding result [1]: binds
Binder: YKCKGKVKVKCKGKVKVKCKGKVKVKCKGKVK [de novo-designed cysteine-containing positive polypeptide (SEQ ID NO: 5)]

binding result [2]: binds
binding result [3]: binds
B1: SP2 (short positive designed polypeptide) (peptide)
peptide: YRRRRSVQGRRRRSVQGRRRRSVQGRRRRSVQ
notes: Synthetic 32-residue polycation built from a 7-residue motif of human lactotransferrin, with Gly linkers and an N-terminal Tyr

binding result [3]: binds
Binder: YRRRRSVQGRRRRSVQGRRRRSVQGRRRRSVQGRRRRSVQGRRRRSVQ (Synthetic 48-residue polycation) [LP4 (long positive designed polypeptide)]
